Data reported in the nanobody polyreactivity screen of Harvey et al. (2022).

Assay: yeast display, Sf9 membrane polyspecificity reagent, FACS + sequencing; frameworks hold sequencing errors
Procedure, shortened: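 Polyreactivity labels are assigned by the sorting gate from which each nanobody was recovered. The gates were low and high (top ~1%), set on anti-HA fluorescence for expression and streptavidin fluorescence for reagent binding. Before sorting, galactose-induced (36–48 hours) yeast display cells were stained for 1 hour at 4 °C with 10% biotinylated, detergent-solubilized Sf9 membrane reagent.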

Sequence	polyreactivity (PSR sort gate)
QVQLVESGGGLVQAGGSLRLSCAASGITFGRNTMGWYRQAPGKERELVAAIDSGGNTYADSVKGRFTISRDNAKNTVYLQMNSLKPEDTAVYYCATVADEPRAYSGYEESDYWGQGTQVTVSS	low polyreactivity
QVQLVESGGGLVQAGGSLRLSCAASGITFGRNTMGWYRQAPGKERELVAAIDSGGNTYADSVKGRFTISRDNAKNTVYLQMNSLKPEDTAVYYCDVDGGEFSSYGYWGQGTLVTVSS	low polyreactivity
QVQLVESGGGLVQAGGSLRLSCAASGITFGRYAMGSYRQPPGKEREFVAAISWSGGSTYYADSVKGRFTISLDNATNPVYLQINSLKPEDTAVYYCAVEWYYTSYHIRVYRDNYWGQGTQVTVSS	high polyreactivity
QVQLVESGGGLVQAGGSLRLSCAASGITFGRYAMGWYRQAPGKERELVAAISRGSGSTYYADSVKGRFTISRDNAKNTVYLQMNSLKPEDTAVYYCAKVVRVGMGYWGQGTQVTVSS	high polyreactivity
QVQLVESGGGLVQAGGSLRLSCAASGITFGTYAMGWYRQAPGKERELVAAISQSSGRTYYADSVKGRFTISRDNAKNSVYLQMNSLKPEDTAVYYCADRTRGSSRGDYDYWGQGTQVTVSS	high polyreactivity
QVQLVESGGGLVQAGGSLRLSCAASGITFGVNTMGWYRQAPGKERELVAAITWRGGSTYYADSVKGRFTISRDNAQNTVYLQMNSLIPEDTAVYYCAAQPIWPGGQELDYWGQGTQVTVSS	low polyreactivity
QVQLVESGGGLVQAGGSLRLSCAASGITFGYYAMGWSRQAPGKERELVAAISWSGGRTYYADSVKGRFTMSRDNAKNTVYLQMNSLKPEDTAVYYCAADYWYYRGGYPMDYWGQGTQVTVSS	high polyreactivity
QVQLVESGGGLVQAGGSLRLSCAASGITFGYYTMGWYRQAPGKEREFDAAISSTGGTYYADSVKGRFTISRDNAQNTVYLQMNSLKPEDTAVYYCAATFIQVVVNVQLYDYDYWGQGTQVTVSS	low polyreactivity
QVQLVESGGGLVQAGGSLRLSCAASGITFHANAMGWNRQARGKERELVPAINWSGGSTYYADSVKGRFTISRDNAKNTVYLQMNSLKPEDTAVYYCAAELWGLFDYWGQGTQVTVSS	low polyreactivity
QVQLVESGGGLVQAGGSLRLSCAASGITFHSYAMGWYRQAPGKERELVAGISSGGSTNYADSVKGRFTISRDNAKNTVYLQMNSLKPEDTAVYYCAVLNHRVDSVLTRYYYWGQGTQVTVSS	low polyreactivity
QVQLVESGGGLVQAGGSLRLSCAASGITFILYDMGWYRQAPGKERELVAGITSGDGDSTYYADSVKGRFTISRDNAKNTVYLQMNSLKPEDTAVYYCAADFTVGYYREYYYWGQGTQVTVSS	low polyreactivity
QVQLVESGGGLVQAGGSLRLSCAASGITFIRYAMGWYRQAPGKERELVAAISKDGDSTYYADSVKGRFTISRDNAKNTVYLQMNSLKPEDSGVYYCAAQRYSKALYNYWGQGTQVTVSS	high polyreactivity
QVQLVESGGGLVQAGGSLRLSCAASGITFIRYAMGWYTQAPGKERELVAAIDRSGGSTYYADSVKGRFTISRDTAKNTVYLQMNSLKPEDTAVYYCAARRVRGLDYWGQGTQVTVSS	high polyreactivity
QVQLVESGGGLVQAGGSLRLSCAASGITFKAYAMGWYRQAPGKERELVAAITGSGGRTYYADSVKGRFTISRDNAKNTVYLQMNSLKPEDTAVYYCAKTSSWYLRPKYYYWGQGTQVTVSS	high polyreactivity
QVQLVESGGGLVQAGGSLRLSCAASGITFKFYAMGWYRQAPGKERELVAVITSGGSTYYADSVKGRFTISRDNAKNTVYLQMTSLKPEDTAVFYCASGGNGLYRAYPFYYWGQGTQVTVSS	high polyreactivity
QVQLVESGGGLVQAGGSLRLSCAASGITFKGYTMGWYRQAPGKERELVATISRGGRTYAVSVKGRFTISRDNAKNTVYLQMNSLKPEDTAVYYCAADKYWAQNDYWGQGTQVTVSS	low polyreactivity
QVQLVESGGGLVQAGGSLRLSCAASGITFKPYGMGWYRQAPGKERELVATISWSGGSTNYADSVKGRFTISRDNAKNTVYLQMNILKPEDTAVYYCAATSYSHTEIRYDYWGQGTQVTVSS	low polyreactivity
QVQLVESGGGLVQAGGSLRLSCAASGITFKRYAMGWYRQAPRKERELVAAITTSGGSTYYADSVKGRFTNSRDNAKNTVYLLMNSLKPEDTAVNYCNAEDYWGKYYYWGQGTQVTVSS	low polyreactivity
QVQLVESGGGLVQAGGSLRLSCAASGITFKRYTMGWYRQAPGKERELVAANSRSGGSTYYADSVKGRFTISRDTAKNTVYLQMNSLKPEDTAVYYCAAAVGGYNVAYDYWGQGTQVTVSS	high polyreactivity
QVQLVESGGGLVQAGGSLRLSCAASGITFKSNAMGWYRQAPGKERELVAAISRRASSTYYADSVKGRFTISRDNAKNTVYLQMNSLKPEDTAVYYCAARSTVLATVSYPFGRYYWGQGTQVTVSS	high polyreactivity
QVQLVESGGGLVQAGGSLRLSCAASGITFKYYAMGWYRQAPGKERELVAAISRSGGTTYYADSVKGRFTISRDNAKNTVYLQMNSLKPEDTAVYYCNKYTHYYDYDYWGQGTQVTVSS	high polyreactivity
QVQLVESGGGLVQAGGSLRLSCAASGITFKYYTMGWYRQAPGKERELVAAITADTGTTYYADSVKGRFTISRDNAKNTVYLQMNSLKPEDTAVYYCATRDVFYDDDYWGQGTQVTVSS	high polyreactivity
